In article PMC12692541 one finds Kd data, which are given here for 1 sequence.

This series concerns HalTzlAAA homotrinucleopeptide (synthetic (designed)). Briefly: fluorescence anisotropy. Conditions: none (unmodified); TB (tris/borate) buffer, 25 °C, 20 min incubation; RNA refolded at 90 °C for 5 min; salt and pH not given in the material.

For GCAGACUUUUAAUCUGC [ASLLys3], the Kd – broadly, a measure of binding affinity in units of concentration – came to 75.3 µM.
